Data published in the RNAGym collection of RNA variant scans (doi:10.1093/molbev/msab373).

B1: Azoarcus group I ribozyme (parent)
chain: GUGCCUUGCGCCGGGAAACCACGCAAGGGAUGGUGUCAAAUUCGGCGAAACCUAAGCGCCCGCCCGGGCGUAUGGCAACGCCGAGCCAAGCUUCGGCGCCUGCGCCGAUGAAGGUGUAGAGACUAGACGGCACCCACCUAAGGCAAACGCUAUGGUGAAGGCAUAGUCCAGGGAGUGGCGAAAGUCACACAAACCGG

Variants of: B1
Test: reverse-splicing fitness (ratio to wild type); higher = more active; in vitro selection; Mg2+ level not given
Method in brief: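 An in vitro group I ribozyme library with randomized positions was T7-transcribed and gel-purified. In triplicate, 10 pmol RNA in EPPS pH 7.5 was reacted with 50 pmoles of a 30-nt RNA substrate for 1 h at 37 °C across several added MgCl2 levels (1–48 mM), then stopped with EDTA. Products were reverse transcribed from a substrate-complementary primer, PCR-amplified and sequenced (HiSeq 4000). Fitness is a variant's read proportion after selection over that before, normalised to wild type.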

In order of rising reverse-splicing fitness:
1. C82A A111G A120C A145C C150G U176G  0.00265
2. C82A A111G A120G A145C C169A U176G  0.00385
3. C82A A111G A120C C150G U176G  0.00391
4. C82A A111G A120C A145U C150G U176G  0.00395
5. C82A A111G A120C A145C C169U U176G  0.00478
6. C82A A111G A120G A145C C150G C169G U176G  0.0049
7. C82A A111G A120C A145C C150G U176A  0.00522
8. C82A A111G A120C A145G C169U U176G  0.00528
9. C82A A111G A120G A145C C150G C169U U176G  0.00529
10. C82A A111G A120C A145C C169A U176G  0.0053
11. C82A A111G A120C A145U C150U C169G U176G  0.00539
12. C82A A111G A120G A145C C150U C169A U176G  0.00561
13. C82A A111G A120G A145C C150A C169A U176G  0.00578
14. C82A A111G A120G A145C C150U C169G U176G  0.00597
15. C82A A111G A120C A145U C150G U176A  0.00605
16. C82A A111G A120G A145C C150A C169A U176C  0.00609
17. C82A A111G A120C A145U U176G  0.00629
18. C82A A111G A120G A145C C150U C169A U176C  0.00635
19. C82A A111G A120C C150G U176A  0.0064
20. C82A A111G A120C A145C C150U U176G  0.00644
21. C82A A111G A120C C150A C169G U176G  0.00675
22. C82A A111G A120C A145C C150U C169A U176G  0.00704
23. C82A A111G A120C A145C C150G U176C  0.00712
24. C82A A111G A120C A145C U176G  0.00728
25. C82A A111G A120C A145U C150A U176G  0.00739
26. C82A A111G A120G A145C C150G C169G  0.00751
27. C82A A111G A120G A145C C169A U176C  0.00752
28. C82A A111G A120G A145C C150G C169U  0.00786
29. C82A A111G A120G A145C C150G C169G U176C  0.00788
30. C82A A111G A120C C150G C169A U176G  0.00791
31. C82A A111G A120C A145G C150A C169U U176G  0.00842
32. C82A A111G A120C C150U C169G  0.00852
33. C82A A111G A120C C169A  0.00875
34. C82A A111G A120G A145C C150A C169U  0.00881
35. C82A A111G A120C C169G  0.00888
36. C82A A111G A120C C150G U176C  0.00892
37. C82A A111G A120C A145G C150U U176G  0.00916
38. C82A A111G A120G A145C C150A C169G  0.00922
39. C82A A111G A120G A145C C150G C169A  0.00928
40. C82A A111G A120G A145C C150A C169A  0.00942
41. C82A A111G A120G A145C C150G C169G U176A  0.00955
42. C82A A111G A120C A145C C150U C169A U176C  0.00983
43. C82A A111G A120C C150U C169A  0.00986
44. C82A A111G A120C A145U C150G U176C  0.00993
45. C82A A111G A120C A145C C169A U176C  0.0109
46. C82A A111G A120C A145U C150G  0.011
47. C82A A111G A120G A145C C150U C169A U176A  0.0114
48. C82A A111G A120C A145U C150A  0.0115
49. C82A A111G A120C C150G C169A U176A  0.0116
50. C82A A111G A120C C150U C169U  0.0116
51. C82A A111G A120G A145C C169A U176A  0.0117
52. C82A A111G A120G A145C C150A C169A U176A  0.0118
53. C82A A111G A120C A145C C150U U176A  0.0118
54. C82A A111G A120C A145U C150A U176A  0.012
55. C82A A111G A120G A145C C150U C169G U176C  0.0123
56. C82A A111G A120G A145C C150G C169U U176A  0.0129
57. C82A A111G A120C A145C C169U U176C  0.0138
58. C82A A111G A120C C150G C169A U176C  0.0139
59. C82A A111G A120C C169U  0.0139
60. C82A A111G A120G A145C C150G C169U U176C  0.0141
61. C82A A111G A120C A145U C150U C169G U176A  0.0145
62. C82A A111G A120C A145G C169U U176C  0.0146
63. C82A A111G A120C A145G C169U U176A  0.0149
64. C82A A111G A120C A145G C150A C169U U176A  0.0153
65. C82A A111G A120C A145G C150A C169U U176C  0.0154
66. C82A A111G A120C A145G C150U U176A  0.0156
67. C82A A111G A120C A145C C169U U176A  0.0161
68. C82A A111G A120G  0.0164
69. C82A A111G A120C A145C U176A  0.0165
70. C82A A111G A120C A145U U176A  0.0171
71. C82A A111G A120C A145C C150U U176C  0.018
72. C82A A111G A120C A145U C150U C169G U176C  0.0191
73. C82A A111G A120C A145U C150A U176C  0.0198
74. C82A A111G A120C A145C C150U C169A U176A  0.0199
75. C82A A111G A120C C150A C169G U176A  0.0219
76. C82A A111G A120C A145C U176C  0.024
77. C82A A111G A120G A145C C150U C169G U176A  0.0242
78. C82A A111G A120C A145U U176C  0.0247
79. C82A A111G A120C C150A C169G U176C  0.0256
80. C82A A111G A120C A145G C150U U176C  0.0258
81. C82A A111G A120C A145U C150U  0.0296
82. C82A A111C C150U U176A  0.036
83. C82A A111G A120C  0.0449
84. C82A A111G  0.435
